The data set has as its system Sindbis virus TE/5'2J-GFP. Nature of the data set: percent infected (GFP+ in RFP+ ISG-expressing cells); higher = more infection (less antiviral activity). Here is the method: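 Confirmatory testing of 87 ISGs. Triplicate wells of BHK/HA-Zeo (control) or BHK/NZAP-Zeo (ZAP) cells were transduced with lentiviruses co-expressing a human ISG plus TagRFP, then infected 48 h later with SINV TE/5'2J-GFP (moi 5). The % GFP+ cells among RFP+ cells was measured by flow cytometry at 8 h post infection. Fluc lentivirus served as control. Three independent experiments.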

Where [1] appears, read: experiment: confirmatory screen 1, BHK/HA-Zeo (control).
The mark [2] stands for this setting: experiment: confirmatory screen 1, BHK/NZAP-Zeo (ZAP).
[3] abbreviates: experiment: confirmatory screen 2, BHK/HA-Zeo (control).
Where [4] appears, read: experiment: confirmatory screen 2, BHK/NZAP-Zeo (ZAP).
The mark [5] stands for this setting: experiment: confirmatory screen 3, BHK/HA-Zeo (control).
Setting [6] is: experiment: confirmatory screen 3, BHK/NZAP-Zeo (ZAP).

± gives the standard deviation of the averaged measurements.
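Also: Interferon-defective BHK-21 derivatives, ZAP line overexpressing the rat ZAP N-terminal zinc finger domain fused to Zeocin resistance, GFP scored within live singlet TagRFP+ cells.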

In the case of “MKVSAAALAVILIATALCAPASASPYSSDTTPCCFAYIARPLPRAHIKEYFYTSGKCSNPAVVFVTRKNRQVCANPEKKWVREYINSLEMS [CCL5]”, the percent infected reads like this: under setting [1], 95.946 ± 0.068%; under setting [2], 69.5 ± 4.5%; under setting [3], 94.757 ± 0.09%; under setting [4], 93.5 ± 1.5%; under setting [5], 92.85 ± 0.85%; under setting [6], 93.25 ± 0.49%.

In the case of “MKTFTWTLGVLFFLLVDTGHCRGGQFKIKKINQRRYPRATDGKEEAKKCAYTFLVPEQRITGPICVNTKGQDASTIKDMITRMDLENLKDVLSRQKREIDVLQLVVDVDGNIVNEVKLLRKESRNMNSRVTQLYMQLLHEIIRKRDNSLELSQLENKILNVTTEMLKMATRYRELEVKYASLTDLVNNQSVMITLLEEQCLRIFSRQDTHVSPPLVQVVPQHIPNSQQYTPGLLGGNEIQRDPGYPRDLMPPPDLATSPTKSPFKIPPVTFINEGPFKDCQQAKEAGHSVSGIYMIKPENSNGPMQLWCENSLDPGGWTVIQKRTDGSVNFFRNWENYKKGFGNIDGEYWLGLENIYMLSNQDNYKLLIELEDWSDKKVYAEYSSFRLEPESEFYRLRLGTYQGNAGDSMMWHNGKQFTTLDRDKDMYAGNCAHFHKGGWWYNACAHSNLNGVWYRGGHYRSKHQDGIFWAEYRGGSYSLRAVQMMIKPID [ANGPTL1]”, the percent infected is 94.8 ± 1.7% under setting [1]; 76.2 ± 1.6% under setting [2]; 95.66 ± 0.28% under setting [3]; 94.3 ± 2.2% under setting [4]; 94.73 ± 0.38% under setting [5]; 94.71 ± 0.28% under setting [6].

Turning to UBE2L6, the percent infected came to 95.97 ± 0.92% under setting [1]; 78.8 ± 2.3% under setting [2]; 96.37 ± 0.3% under setting [3]; 95.27 ± 0.14% under setting [4]; 94.34 ± 0.69% under setting [5]; 93.02 ± 0.28% under setting [6].

With “MDAPHSKAALDSINELPENILLELFTHVPARQLLLNCRLVCSLWRDLIDLMTLWKRKCLREGFITKDWDQPVADWKIFYFLRSLHRNLLRNPCAEEDMFAWQIDFNGGDRWKVESLPGAHGTDFPDPKVKKYFVTSYEMCLKSQLVDLVAEGYWEELLDTFRPDIVVKDWFAARADCGCTYQLKVQLASADYFVLASFEPPPVTIQQWNNATWTEVSYTFSDYPRGVRYILFQHGGRDTQYWAGWYGPRVTNSSIVVSPKMTRNQASSEAQPGQKHGQEEAAQSPYRAVVQIF [FBXO6]”, the percent infected worked out at 95.42 ± 0.3% under setting [1]; 65.4 ± 1.8% under setting [2]; 94.14 ± 0.54% under setting [3]; 94.48 ± 0.2% under setting [4]; 90.9 ± 1.1% under setting [5]; 91.46 ± 0.7% under setting [6].

As for “MTLRCLEPSGNGGEGTRSQWGTAGSAEEPSPQAARLAKALRELGQTGWYWGSMTVNEAKEKLKEAPEGTFLIRDSSHSDYLLTISVKTSAGPTNLRIEYQDGKFRLDSIICVKSKLKQFDSVVHLIDYYVQMCKDKRTGPEAPRNGTVHLYLTKPLYTSAPSLQHLCRLTINKCTGAIWGLPLPTRLKDYLEEYKFQV [SOCS2]”, the percent infected is, setting by setting: under setting [1], 95.84 ± 0.81%; under setting [2], 76.8 ± 4.2%; under setting [3], 95.47 ± 0.42%; under setting [4], 94.44 ± 0.35%; under setting [5], 92.29 ± 0.39%; under setting [6], 92.23 ± 0.73%.

For the substance “MEVTTRLTWNDENHLRKLLGNVSLSLLYKSSVHGGSIEDMVERCSRQGCTITMAYIDYNMIVAFMLGNYINLHESSTEPNDSLWFSLQKKNDTTEIETLLLNTAPKIIDEQLVCRLSKTDIFIICRDNKIYLDKMITRNLKLRFYGHRQYLECEVFRVEGIKDNLDDIKRIIKAREHRNRLLADIRDYRPYADLVSEIRILLVGPVGSGKSSFFNSVKSIFHGHVTGQAVVGSDITSITERYRIYSVKDGKNGKSLPFMLCDTMGLDGAEGAGLCMDDIPHILKGCMPDRYQFNSRKPITPEHSTFITSPSLKDRIHCVAYVLDINSIDNLYSKMLAKVKQVHKEVLNCGIAYVALLTKVDDCSEVLQDNFLNMSRSMTSQSRVMNVHKMLGIPISNILMVGNYASDLELDPMKDILILSALRQMLRAADDFLEDLPLEETGAIERALQPCI [IFI44L]”, the percent infected stood at 94.86 ± 0.39% under setting [1]; 67.5 ± 2.4% under setting [2]; 96.87 ± 0.21% under setting [3]; 94.83 ± 0.34% under setting [4]; 83.6 ± 1.6% under setting [5]; 85.31 ± 0.85% under setting [6].

In the case of “MLTELEKALNSIIDVYHKYSLIKGNFHAVYRDDLKKLLETECPQYIRKKGADVWFKELDINTDGAVNFQEFLILVIKMGVAAHKKSHEESHKE [S100A8]”, the percent infected is 80.1 ± 1.9% under setting [1]; 54.4 ± 3.1% under setting [2]; 91.3 ± 1.5% under setting [3]; 92.37 ± 0.69% under setting [4]; 82.1 ± 1.6% under setting [5]; 89.4 ± 1% under setting [6].

For the substance “MRTSYLLLFTLCLLLSEMASGGNFLTGLGHRSDHYNCVSSGGQCLYSACPIFTKIQGTCYRGKAKCCK [DEFB1]”, the percent infected worked out at 97.13 ± 0.85% under setting [1]; 84.4 ± 1.1% under setting [2]; 95.11 ± 0.27% under setting [3]; 92.98 ± 0.91% under setting [4]; 91.66 ± 0.67% under setting [5]; 92.239 ± 0.055% under setting [6].

In turn, “MATERSRSAMDSPVPASMFAPEPSSPGAARAAAAAARLHGGFDSDCSEDGEALNGEPELDLTSKLVLVSPTSEQYDSLLRQMWERMDEGCGETIYVIGQGSDGTEYGLSEADMEASYATVKSMAEQIEADVILLRERQEAGGRVRDYLVRKRVGDNDFLEVRVAVVGNVDAGKSTLLGVLTHGELDNGRGFARQKLFRHKHEIESGRTSSVGNDILGFDSEGNVVNKPDSHGGSLEWTKICEKSTKVITFIDLAGHEKYLKTTVFGMTGHLPDFCMLMVGSNAGIVGMTKEHLGLALALNVPVFVVVTKIDMCPANILQETLKLLQRLLKSPGCRKIPVLVQSKDDVIVTASNFSSERMCPIFQISNVTGENLDLLKMFLNLLSPRTSYREEEPAEFQIDDTYSVPGVGTVVSGTTLRGLIKLNDTLLLGPDPLGNFLSIAVKSIHRKRMPVKEVRGGQTASFALKKIKRSSIRKGMVMVSPRLNPQASWEFEAEILVLHHPTTISPRYQAMVHCGSIRQTATILSMDKDCLRTGDKATVHFRFIKTPEYLHIDQRLVFREGRTKAVGTITKLLQTTNNSPMNSKPQQIKMQSTKKGPLTKRDEGGPSGGPAVGAPPPGDEASSVGAGQPAASSNLQPQPKPSSGGRRRGGQRHKVKSQGACVTPASGC [GTPBP1]” yielded a percent infected under setting [1] of 93.61 ± 0.15%; a percent infected under setting [2] of 64.4 ± 7.3%; a percent infected under setting [3] of 97.42 ± 0.24%; a percent infected under setting [4] of 96.28 ± 0.23%; a percent infected under setting [5] of 88.74 ± 0.67%; a percent infected under setting [6] of 90.6 ± 0.93%.

“MAGIELERCQQQANEVTEIMRNNFGKVLERGVKLAELQQRSDQLLDMSSTFNKTTQNLAQKKCWENIRYRICVGLVVVGVLLIILIVLLVVFLPQSSDSSSAPRTQDAGIASGPGN [VAMP5]” had a percent infected under setting [1] of 97.4 ± 0.76%; a percent infected under setting [2] of 78.6 ± 3.2%; a percent infected under setting [3] of 96.57 ± 0.3%; a percent infected under setting [4] of 94.74 ± 0.23%; a percent infected under setting [5] of 93.95 ± 0.59%; a percent infected under setting [6] of 93.52 ± 0.17%.

“MTTEQRRSLQAFQDYIRKTLDPTYILSYMAPWFREEEVQYIQAEKNNKGPMEAATLFLKFLLELQEEGWFRGFLDALDHAGYSGLYEAIESWDFKKIEKLEEYRLLLKRLQPEFKTRIIPTDIISDLSECLINQECEEILQICSTKGMMAGAEKLVECLLRSDKENWPKTLKLALEKERNKFSELWIVEKGIKDVETEDLEDKMETSDIQIFYQEDPECQNLSENSCPPSEVSDTNLYSPFKPRNYQLELALPAMKGKNTIICAPTGCGKTFVSLLICEHHLKKFPQGQKGKVVFFANQIPVYEQQKSVFSKYFERHGYRVTGISGATAENVPVEQIVENNDIIILTPQILVNNLKKGTIPSLSIFTLMIFDECHNTSKQHPYNMIMFNYLDQKLGGSSGPLPQVIGLTASVGVGDAKNTDEALDYICKLCASLDASVIATVKHNLEELEQVVYKPQKFFRKVESRISDKFKYIIAQLMRDTESLAKRICKDLENLSQIQNREFGTQKYEQWIVTVQKACMVFQMPDKDEESRICKALFLYTSHLRKYNDALIISEHARMKDALDYLKDFFSNVRAAGFDEIEQDLTQRFEEKLQELESVSRDPSNENPKLEDLCFILQEEYHLNPETITILFVKTRALVDALKNWIEGNPKLSFLKPGILTGRGKTNQNTGMTLPAQKCILDAFKASGDHNILIATSVADEGIDIAQCNLVILYEYVGNVIKMIQTRGRGRARGSKCFLLTSNAGVIEKEQINMYKEKMMNDSILRLQTWDEAVFREKILHIQTHEKFIRDSQEKPKPVPDKENKKLLCRKCKALACYTADVRVIEECHYTVLGDAFKECFVSRPHPKPKQFSSFEKRAKIFCARQNCSHDWGIHVKYKTFEIPVIKIESFVVEDIATGVQTLYSKWKDFHFEKIPFDPAEMSK [DDX58]”: the percent infected was determined as 38 ± 4.1% under setting [1]; 4.81 ± 4.5% under setting [2]; 96.53 ± 0.19% under setting [3]; 89.2 ± 2.2% under setting [4]; 75.6 ± 6% under setting [5]; 23.2 ± 3.1% under setting [6].

Turning to “MLRAGAPTGDLPRAGEVHTGTTIMAVEFDGGVVMGSDSRVSAGEAVVNRVFDKLSPLHERIYCALSGSAADAQAVADMAAYQLELHGIELEEPPLVLAAANVVRNISYKYREDLSAHLMVAGWDQREGGQVYGTLGGMLTRQPFAIGGSGSTFIYGYVDAAYKPGMSPEECRRFTTDAIALAMSRDGSSGGVIYLVTITAAGVDHRVILGNELPKFYDE [PSMB9]”, the percent infected is 80 ± 1.9% under setting [1]; 24.2 ± 0.77% under setting [2]; 90.2 ± 1.4% under setting [3]; 91.27 ± 0.32% under setting [4]; 87.59 ± 0.53% under setting [5]; 83.1 ± 1.6% under setting [6].
